Consider 143 substances from the supplement of paper PMC12042874.

± gives the uncertainty stated by the source.

The nature of this data set: amyloid nucleation score (Sup35N fusion, yeast selection) (log enrichment); library NNK2; higher = more nucleation; inactive = no reads after selection. In outline: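 Three technical output replicates were used for random libraries. Psi-negative yeast expressing peptides of 20 random codons fused to Sup35N were induced with 100 μM copper sulfate for 24 hours and grown 7 days at 30°C on medium lacking adenine and uracil, and input and output plasmid inserts were Illumina-sequenced, excluding sequences with under 100 input reads. The nucleation score is the DiMSum log enrichment of output over input reads, centred on the mode score of non-aggregating sequences.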
Take IRFVESSQMKVLPRGGVGLN: the amyloid nucleation score entry was “inactive”.
In the case of IRKCRSHSFSRFRRHFS it was 0.285 ± 1; in that of IRLPPRRAFHNEFFVDLHRG, -1.91 ± 0.76; in that of IRMNIFASSTR, 3.11 ± 0.073.
IRNLLCVSYGCTGYMMVGHG yielded an amyloid nucleation score of 4.68 ± 0.063.
In the case of IRNVSYDMGCELSHDMVRSR it was 0.044 ± 1.1.
Next, IRPINGSWGVSTNCKVYDYV: -0.011 ± 1.1.
Next, IRPLFTVLGRKTRQIFTM: -0.283 ± 1; IRQFDIDITNARNKG: -1.62 ± 0.62; IRRTPHLISFLRKLCEYWIE: “inactive”.
IRVICRIWCLFLSL showed an amyloid nucleation score of 0.087 ± 0.55.
Next, IRWGNRLTLERGFFKPFY: “inactive”.
Next, IRWNDSYKKECHIFFWRNRE: “inactive”; IRWNTTFGFDSEAPTCCATS: 0.026 ± 0.8.
For IRYFR, the amyloid nucleation score is 0.371 ± 0.13.
In the case of ISDLFYANLLVIASNMVT it was -1.46 ± 0.78; in that of ISETLASSVWRRCVSCGYVM, 3.93 ± 0.075; in that of ISFYFSAWDKTVQTRRYIDH, -0.356 ± 0.33.
Next, ISFYYWLARPCLFVSKIEGA: 3.54 ± 0.062; ISGVVFSTTRLLQFDGCRVG: 1.31 ± 0.52.
ISIYIITVILFLVDALYMLR displayed an amyloid nucleation score of -0.809 ± 1.1.
ISMTL returned an amyloid nucleation score of 6.15 ± 0.081.
In the case of ISNLQGFLLQNSDLAHSWVA it was 1.28 ± 0.15.
The substance ISRIIVPDSRLAYGEWFEIV gave an amyloid nucleation score of 1.53 ± 0.58.
Next, ISSSSKVD: -0.706 ± 0.29; ISVDTRFGLNVCFEGCCAYR: 7.449 ± 0.062; ISVPYGVKGSSACMNGLGVT: 0.318 ± 0.8.
In the case of ISWIFLKSAFTELAVFWDFI it was 0.726 ± 0.46.
In the case of ISYVCGPFICVLNLFYQI it was 6.04 ± 0.066; in that of ITCLWRAWNAVLRRGHYKTS, 0.615 ± 0.51; in that of ITFRTYILPDSWIRPRTFEK, 3.29 ± 0.054.
As for ITISLLLGHYDCCCVTLLQE, the amyloid nucleation score came out at 7.263 ± 0.027.
Turning to ITLSSS, the amyloid nucleation score worked out at 0.853 ± 0.2.
In the case of ITSICGIIE it was “inactive”.
In the case of IVCITTSNVLTCDIDGNITK it was 4.27 ± 0.044; in that of IVFVLLSYYLL, 3.4 ± 0.037; in that of IVGHM, -0.5 ± 0.21.
In the case of IVGVSFKSVNTNRIDPVFLF it was “inactive”; in that of IVHYGETNG, 0.494 ± 0.38.
For IVMCTRRDIA, the amyloid nucleation score is -0.577 ± 0.56.
The substance IVRVSEPIEVHVHVNAVYSV yielded an amyloid nucleation score of 4.68 ± 0.083.
Take IVVQWMYVF: the amyloid nucleation score is -0.382 ± 0.33.
With IVYLWRNRWVDLADYLLHVM, the amyloid nucleation score worked out at 0.313 ± 0.29.
In the case of IVYYG it was 0.801 ± 0.38; in that of IWGPVLYIMSGYSSVVTRF, 6.561 ± 0.055.
Regarding IWHFYIACLGVSNESISGFG, the amyloid nucleation score came to 6.77 ± 0.068.
In the case of IWLLHQCSLATLGFC it was -1.25 ± 0.62.
In the case of IWPSRSGCVSVASVRI it was 0.98 ± 0.33; in that of IWSYSSFGVD, -0.064 ± 1.1.
Next, IYCHPLRYVLFIVSYRVSSA: 0.259 ± 0.56.
IYEQPG registered an amyloid nucleation score of 0.012 ± 0.54.
Next, IYFFSVF: “inactive”; IYGLYG: 0.515 ± 0.51; IYGQCWVFQNLLRLRVSV: 0.119 ± 0.76.
Next, IYIAKW: -0.656 ± 0.33; IYLHFGNLLNYFETRRTVFR: 6.19 ± 0.087; IYQVRLYD: -0.923 ± 0.5.
IYTWSIRIYRF showed an amyloid nucleation score of -0.778 ± 0.48.
In the case of IYVVMFSKRLNSNFW it was -1.62 ± 0.62; in that of IYYGGLKHARVPVTRFEGSP, 3.87 ± 0.098.
Regarding KAKIATKVSLFLLSGYVDLQ, the amyloid nucleation score was -0.356 ± 0.65.
In turn, KALCLYNVVRKKRCT came in with an amyloid nucleation score of 0.152 ± 0.5.
In the case of KALFLCILMLSASAFQEECH it was 4.47 ± 0.085.
The substance KAVVMLI had an amyloid nucleation score of -1.09 ± 0.31.
In the case of KAWTLVRHDVLLYV it was -0.316 ± 0.44; in that of KCCVENCRWHGRLSSLLFAM, 0.576 ± 0.34.
Next, KCGEKRMKCFSDCRRWWLCQ: 4.88 ± 0.068; KCGSSVVYFIVYQRKLKWGW: 0.961 ± 0.81; KCLSRTQTYACSP: 1.78 ± 0.21.
As for KCVSRISSGR, the amyloid nucleation score worked out at 1.03 ± 0.66.
In the case of KCVVRAVA it was 2.23 ± 0.24; in that of KCYLVLRG, 3.08 ± 0.17.
KDRRRVDMLRLGR: the amyloid nucleation score came to 1.36 ± 0.26.
Next, KEFYGKRIFRCLYDVLVVLF: -1.25 ± 0.54; KEMAFVRGMTARPRYNVNSE: 1.22 ± 0.29.
In the case of KFCCT it was 3.47 ± 0.1; in that of KFFMDYNGILDFWFRTREKD, -0.375 ± 0.74.
Substance KFGLPREYNSSVPVGPASCL displayed an amyloid nucleation score of 0.272 ± 0.41.
Next, KFMVLITVRMIVIRPVSVRS: 0.647 ± 0.58; KFNGPKIVYFISTSMVLLVS: -0.406 ± 1.1.
The substance KFPYVHLVFLARIYSF displayed an amyloid nucleation score of -0.536 ± 1.1.
In turn, KFTLGHVNIVWNMVVYATQE registered an amyloid nucleation score of 8.24 ± 0.083.
In the case of KGAMA it was 0.539 ± 0.39.
In the case of KGMNCVCACAINRPYSIVLQ it was 1.41 ± 0.15; in that of KGSGRSQLSSIVCVFFGQTV, -0.292 ± 0.49; in that of KHCMCYLLWNI, -0.422 ± 1.1.
Next, KHRRYFFCVGSIRWASVYKT: “inactive”.
With KHSDSTGARQWGNNVYKLDD, the amyloid nucleation score was 0.366 ± 0.2.
Next, KICSYPR: 2.46 ± 0.11; KIEGHGFYYLFNWTA: -0.833 ± 0.78; KIKPLIIKNMCGNNTGPGIQ: “inactive”.
In the case of KILFPVR it was -0.927 ± 1; in that of KITCVITNALCSLTERADR, 9.394 ± 0.069.
Next, KIWDCSMYTF: -1.07 ± 0.55; KIWMSLHLRELRLC: 0.569 ± 0.12.
Regarding KKFSSMYRSEFGNSI, the amyloid nucleation score is -0.65 ± 0.41.
In the case of KKNEIEVECGPNCGTGTLVF it was 5.04 ± 0.054.
In the case of KKSSVPTSYLYVNENFLTVL it was 6.965 ± 0.054; in that of KKVVLRPS, 4.97 ± 0.051.
Next, KLGFWVGSWLSSRSVDCSCM: 1.33 ± 0.35; KLGIDRGTVCLWLSV: 0.401 ± 0.14; KLGLSSIHFSGSMFVRCTFC: 4.503 ± 0.041.
Consider KLHRLTGGHYDPNCDNGPVD, for which the amyloid nucleation score was 3.68 ± 0.059.
In the case of KLHSVQLNTRVLIN it was 0.219 ± 0.26; in that of KLIVMGTNPGRVGNGWKRKS, 0.53 ± 0.3.
In the case of KLMVPA it was 0.248 ± 0.28; in that of KLSLNVLGSRSERWLLLFSC, -0.291 ± 0.79.
In the case of KLTFTVMYTFCKVLSRDVAC it was 3.1 ± 0.1.
KLVDLKVRFDSHLDNLEVAL gave an amyloid nucleation score of -0.204 ± 0.46.
Next, KLVISAFPPIRNMVYTKCSK: -0.446 ± 1.1; KMKAGAMWCGSRIASKSRRG: 1.51 ± 0.15; KMLPSGARDLMPMDLLDFMM: -0.234 ± 0.25.
In turn, KMSVLG gave an amyloid nucleation score of -0.936 ± 0.64.
KMTLLFARQFGV returned an amyloid nucleation score of 2.93 ± 0.12.
In the case of KMYYGSKNTKSDLARTYGTL it was 1.61 ± 0.44; in that of KNCVHE, -0.076 ± 0.79.
KNFSCVN returned an amyloid nucleation score of 0.706 ± 0.74.
Next, KNKTL: 0.576 ± 0.46; KNLDQYCCCFNALTLSVSRS: 7.473 ± 0.051; KNSIDQVTWTCNRYLKLVLS: -0.402 ± 0.39.
In the case of KNSLKVLLNRRLRVCGSQLN it was -0.309 ± 0.45; in that of KNWVYVAWRRENYEQPFIR, -0.299 ± 1.
In the case of KNYGYNIN it was 1.83 ± 0.17.
For the substance KPAERLFKCRSTE, the amyloid nucleation score was found to be 0.014 ± 0.49.
In the case of KPDCVLTTGFTSSLRFIMKK it was -0.007 ± 0.55; in that of KPDTMNFWVVLALNFDLGRT, 2.77 ± 0.099.
Next, KQGKRSTAHRSIVPLSFRH: 1.58 ± 0.14; KRGKPK: “inactive”; KRNVLRVTSCHKEYSVGSVP: 0.739 ± 0.22.
Turning to KRNVRFVGMITKRMSRSRPI, the amyloid nucleation score came out at 0.511 ± 0.43.
In the case of KRSFVIRNLGFCALRLHISV it was 4.63 ± 0.11.
In the case of KRSTNWKDC it was -1.07 ± 0.64; in that of KRWLKMWKRWQRRFMCGLLS, 0.472 ± 0.32; in that of KSASRYNRQWNRHSYWMANR, -0.064 ± 0.34.
Turning to KSCSMMFILWVTAGMDRWGH, the amyloid nucleation score came to 6.25 ± 0.09.
Next, KSFGCIRKCEDCYIW: 0.74 ± 0.51.
In the case of KSHSDSFDYW it was 0.233 ± 0.74.
In the case of KSIESGRIRK it was 0.627 ± 0.35; in that of KSINNC, 0.181 ± 0.26.
Take KSINSFYKRIDVVWGMRSQS: the amyloid nucleation score was -0.984 ± 0.33.
In the case of KSIRAYYYVSRQ it was 0.263 ± 0.25; in that of KSLDFR, 0.493 ± 0.46; in that of KSRWRQRILVPIPWWARHVE, 0.239 ± 0.29.
